Data reported in the supplement of paper PMC10567573.

B1: ATL3 (parent)
chain: EKALASILLQDHIRDLDVVVVSVA
B2: INTS4 (parent)
chain: AKQIMEETYKMEFMYSGVENKQVV

Variants of: B1
Test: protein stability index of a GFP-peptide fusion (GPS, HEK-293T) (PSI 1-6); higher = more stable
Details: c terminus: a fixed tail appended
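Note: lentivirally expressed fusions sorted by FACS into six bins by GFP to DsRed ratio, PSI derived from sequencing read proportions per bin multiplied by bin number.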

Protein stability index of substitutions, site by site:
L4: A 1.45, E 1.39, K 3.04, T 1.37, C 1.47, H 1.05, P 1.25, V 3.38, D 2.61, Q 1.69
R14: F 3.13, L 3.36, K 3.11, P 1.55, W 3.58, N 3.67, T 1.49
Q10: S 2.87, Y 3.47, N 2.98
K2: D 2.78, Y 2.98
S22: H 1.84, R 2.97, D 2.35, G 1.07, P 1.91, E 2.86
H12: L 2.48, I 3.19, E 2.17, P 2.97
D17: Q 1.93, M 2.05, Y 3.45, A 3.11
V23: P 2.45, R 1.41, G 3.31, A 2.21, N 2.32, S 3.22, H 1.19, Q 1.96, K 2.38, F 3.83, L 2.76
I7: E 2.37, Y 2.15, P 3.2, R 2.08, D 2.51, S 2.85, H 2.31, A 2.62, N 1.31
D15: I 2.33, W 2.5, V 2.55
A24: C 4.82, G 2.39, P 2.53, M 1.8, N 2.01
L8: G 2.62, Q 2.63, A 2.99, W 3.89, K 1.14, E 1.98, I 2.89, P 2.34, N 1.04
V19: S 2.01, P 2.52, G 2.25, R 2.19, N 1.72, K 1.96
L9: E 3.11, M 2.46, K 3.25, H 2.71
V21: Q 2.6, C 2.07, T 1.62, D 3.39, S 1.81, R 3.63, P 2.56, A 1.16, H 1.51, I 2.63, Y 1.75
V18: K 2.27, Q 1.59, P 2.34, Y 3.61, E 2.48, D 2.74, I 2.02, C 1.66, T 3.46
D11: E 3.13, K 3.25
I13: S 1.26, D 3.12, Y 3.9, T 3.04
V20: E 2.89, M 1.82, R 2.2, T 1.89, L 3.35, A 1.58, Q 2.1, H 2.18, K 2.79, Y 2.34, D 2.79
E1: R 2.24, G 3.59, N 2.93, C 3.34, I 2.5
A5: H 1.35, T 2.26, E 2.29, K 1.74, V 2.9, N 3.63, Q 3.29
S6: P 1.93, K 2.18
L16: S 2.37, D 1.67, A 1.31, K 1.23, Q 1.37, R 1.03, P 1.57
A3: E 1.51, Y 1.09

Variants of: B2
Test: as above
Details: c terminus: a fixed tail appended

Protein stability index of substitutions, site by site:
Y9: C 2.31, M 3.43, T 3.87, Q 4.41, R 3.84, L 2.67
V18: Y 1.9, G 2.12, P 2.5, I 1.69, R 1.54, N 2.02, D 1.88, S 2.07, E 2.78, M 1.75, K 2.72, H 1.87
F13: V 1.67, E 4.3, K 3.12, S 4.24, G 3.94, P 3.66, Q 3.12, A 4.23, Y 2.96, L 2.26, W 1.79, M 1.86
E19: P 1.56, D 1.78, T 1.85, Y 1.09, L 1.2
K2: P 2.62, I 2.81, Q 2.27, R 1.4, F 2.51, V 2.04, L 2.62
S16: K 1.7, R 1.36, M 2.24, A 2.15, T 1.56, N 1.98, P 2, G 2.14, H 1.41
Q22: K 1.47, N 1.31
E12: M 2.43, K 1.59, H 2.32, A 2.97
Y15: D 2.37, T 2.08, H 1.88, A 2.57, L 3.19, C 1.93, G 1.55, V 1.69, N 2.31
V23: M 3.75, H 1.88, R 1.95, G 1.32, A 1.8, T 1.46, N 2.18, D 1.68, K 1.71
N20: Q 2.84, L 1.29
K21: F 3.8, M 2.07, C 1.92
A1: P 3.02, E 3.37, N 2.1, C 1.86, F 1.04, Y 2.1, Q 2.52
K10: W 1.96, L 1.96, Y 2.14, T 1.43, N 1.32, R 3.13, Q 1.67, D 3.55, C 1.6, M 1.99, I 1.92
M5: A 3.14, S 3.08, C 2.87, E 3.67, V 2.2, H 2.76, G 3.53, Y 2.71
E6: K 1.89, W 2.12, M 3.07, A 2.25, R 2.48, S 2.47, H 2.21, P 2.16, D 3.17
T8: N 2.42, V 1.89, A 1.63, C 1.52, L 2.67, E 2.69, G 1.41, K 2.85, F 1.64
M11: W 2.22, A 1.42, N 3.98, Q 3.2, F 2.26, V 1.9, Y 2.68, I 3.35, K 3.44, D 4.33, P 3.85, C 2.43, E 3.9
V24: A 1.75, N 2.44, Q 1.89, I 1.51, P 2.54, D 2.56, W 2.33
M14: L 2.17, A 2.25, H 1.87, F 1.77, I 1.54, V 1.71, C 1.98, T 1.63, E 2.54
E7: R 2.55, V 2.97, G 2.1, Q 1.86, C 1.71, P 2.93, Y 2.21, I 2.35, D 1.68, A 2.04, K 2.55
Q3: S 2.35, A 2.15, D 2.26, H 1.69, Y 1.84, L 1.75, T 1.85, C 1.42, F 1.97, R 1.7
I4: K 2.38, M 1.9, A 2.39, H 2.04, G 2.89, Y 2.48, F 3, Q 2.3, S 2.99
G17: Y 1.84, P 1.29, M 1.65, T 1.06, C 2.87, E 1.55, A 1.51, N 1.48
